Literature values, collected in publication PMC9949911.

Biological target: IL-18bp (Homo sapiens) (UniProt O95998)
Sequence (O95998 31-194): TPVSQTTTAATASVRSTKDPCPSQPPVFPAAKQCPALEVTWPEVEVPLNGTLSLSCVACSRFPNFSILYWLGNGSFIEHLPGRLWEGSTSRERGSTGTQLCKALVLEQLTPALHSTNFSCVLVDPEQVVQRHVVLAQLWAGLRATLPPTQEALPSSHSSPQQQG

Chain of IL-18 (Q14116 37-193): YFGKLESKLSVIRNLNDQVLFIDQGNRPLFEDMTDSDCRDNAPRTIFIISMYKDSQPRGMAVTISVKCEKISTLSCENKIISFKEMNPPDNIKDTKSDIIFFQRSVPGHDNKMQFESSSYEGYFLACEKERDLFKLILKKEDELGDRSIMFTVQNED

Substance: IL-18 (from UniProt Q14116)
- Kd: 0.05 nM
